# Experiments:
# free SUMO1 = free SUMO1 (UniProt P63165); experiment: pull-down (IP: TEX264-GFP) with immunoblot, quantified band ratio; conditions: purified GFP-tagged TEX264 incubated with free SUMO1; parent: 1
# [1] = molecular target: TEX264^SIM2*-FLAG (SIM2-mutated variant) (UniProt Q9Y6I9); experiment: co-IP; tandem affinity purification from ΔTEX264 HEK293 co-expressing FLAG-tagged TEX264 and HA-SUMO1: FLAG IP under native conditions, then anti-HA IP after boiling in 1% SDS; eluates probed for TOP1
# Sequence of UniProt Q9Y6I9 (Q9Y6I9 whole entry, stated change not applied): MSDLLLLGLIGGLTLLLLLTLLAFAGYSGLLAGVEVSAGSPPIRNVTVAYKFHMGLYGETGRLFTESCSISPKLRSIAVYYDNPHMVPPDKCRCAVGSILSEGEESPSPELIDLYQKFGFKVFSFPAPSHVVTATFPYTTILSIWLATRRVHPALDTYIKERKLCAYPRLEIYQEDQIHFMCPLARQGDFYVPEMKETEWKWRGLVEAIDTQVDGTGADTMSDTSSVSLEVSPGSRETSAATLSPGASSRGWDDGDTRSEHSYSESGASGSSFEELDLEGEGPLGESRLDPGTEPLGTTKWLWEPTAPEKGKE
# Sequence of UniProt P63165 (P63165 1-97): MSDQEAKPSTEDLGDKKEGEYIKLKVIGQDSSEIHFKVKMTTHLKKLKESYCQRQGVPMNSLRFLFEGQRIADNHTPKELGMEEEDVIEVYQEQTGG
ratio to parent (free SUMO1),percent less co-immunoprecipitated than with TEX264^WT [1],Substance
0.25,,"GFP-tagged TEX264, wild type (from UniProt Q9Y6I9) SIM1*"
0,,"GFP-tagged TEX264, wild type (from UniProt Q9Y6I9) SIM2*"
,70%,SUMO1-modified TOP1 (HA-SUMO1 conjugated to endogenous TOP1) (from UniProt P11387 1-765; P63165 1-97)

# Source: paper PMC7062751
